Results as given in patent US20210277146A1 (BEIJING DONGFANG BIOTECH, published 2021).

Key:
[1] = target: T1, PCSK9 (UniProt Q8NBP7 31-692, limits assumed); assay: SPR BIAcore X100, antibody captured by goat anti-human IgG on CM5, PCSK9 as analyte
T1 construct: Printed only as 'PCSK9' in Embodiments 5.4 and 6; also called Proprotein Convertase Subtilisin/Kexin Type 9; PCSK9 solution

[2] = target: T2, PCSK9-His (UniProt Q8NBP7 31-692); assay: ELISA, PCSK9-His coated, complete antibody titrated, anti-human IgG-HRP
T2 construct: also called antigen PCSK9-His; Proprotein Convertase Subtilisin/Kexin Type 9; not shown: His tag
T2 sequence (Q8NBP7 31-692 limits assumed): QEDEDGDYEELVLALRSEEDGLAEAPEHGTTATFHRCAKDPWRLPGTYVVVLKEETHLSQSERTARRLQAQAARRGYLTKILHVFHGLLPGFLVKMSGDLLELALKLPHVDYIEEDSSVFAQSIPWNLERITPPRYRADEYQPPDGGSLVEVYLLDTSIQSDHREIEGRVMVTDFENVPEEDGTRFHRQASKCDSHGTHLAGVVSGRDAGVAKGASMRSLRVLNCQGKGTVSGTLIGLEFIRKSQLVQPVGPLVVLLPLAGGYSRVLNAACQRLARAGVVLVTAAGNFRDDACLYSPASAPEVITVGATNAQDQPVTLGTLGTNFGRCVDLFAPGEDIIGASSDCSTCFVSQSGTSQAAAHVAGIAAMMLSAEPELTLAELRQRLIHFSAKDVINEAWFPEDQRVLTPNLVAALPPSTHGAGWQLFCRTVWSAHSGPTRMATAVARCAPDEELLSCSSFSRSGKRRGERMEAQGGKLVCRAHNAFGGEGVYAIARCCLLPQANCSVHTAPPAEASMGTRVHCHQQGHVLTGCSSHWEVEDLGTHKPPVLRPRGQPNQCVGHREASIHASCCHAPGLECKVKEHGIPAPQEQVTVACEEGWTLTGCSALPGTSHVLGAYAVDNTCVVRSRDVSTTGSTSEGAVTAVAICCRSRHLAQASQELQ
Description: Coating PCSK9-His (300 ng/well/100 μl) by 0.01M PBS buffer at pH 7.2 overnight at 4° C., washing three times with PBST (1‰ Tween 20) of 300 μl/well, further adding PBST-4% milk, and blocking for one hour at 37° C.; adding complete antibodies DFSK9-1, DFSK9-12, DFSK9-13, DFSK9-14, DFSK9-15, DFSK9-16, DFSK9-17, DFSK9-18, DFSK9-19, DFSK9-20 and DFSK9-21 of different dilution degrees; the highest concentration of the 11 complete antibodies is 50 μg/ml, diluting at a five-time gradient, diluting for eight gradients for each complete antibody, and incubating for one hour at 37° C.; washing 5 times with PBST of 300 μl/well, further adding a goat-anti-human IgG-HRP secondary antibody diluted by PBST-4% milk at a ratio of 1:5000, and incubating for one hour at 37° C.; washing 5 times with PBST of 300 μl/well, developing by using a Tetramethylbenzidine (TMB) developing kit (100 μl/well), developing for 10 minutes at a room temperature, and terminating developing with 2M H₂SO₄ (50 μl/well); reading numbers by using a microplate reader at wavelengths of 450 nm and 630 nm; analyzing data and drawing pictures by using software GraphPad Prism 5Demo, and results are shown in FIG. 8 and table 2.

[3] = target: T2, PCSK9-His; assay: competition ELISA, LDLR-Fc coated, PCSK9-His 2 ug/ml, antibody titrated, anti-His-HRP
Description: Coating LDLR-Fc (100 ng/well/100 μl) by 0.01M PBS buffer at pH 7.2 overnight at 4° C., washing three times with PBST, further adding PBST-4% milk, and blocking for one hour at 37° C.; further adding 2 μg/ml PCSK9-His (100 μlwell) diluted by PBST-4% milk, and incubating to one hour at 37° C.; adding complete antibodies DFSK9-1, DFSK9-12, DFSK9-13, DFSK9-14, DFSK9-15, DFSK9-16, DFSK9-17, DFSK9-18, DFSK9-19, DFSK9-20 and DFSK9-21 of different dilution degrees; the highest concentration of the 11 complete antibodies is 100 μg/ml, diluting at a five-time gradient, diluting for eight gradients for each complete antibody, and incubating for 2 hours at 37° C.; washing 5 times with PBST, further adding a mouse-anti His IgG-HRP secondary antibody diluted by PBST-4% milk, and incubating for 1 hour at 37° C.; developing by using the TMB developing kit (100 μl/well), developing for 10 minutes at the room temperature, and terminating developing with 2M H₂SO₄ (50 μl/well); reading numbers by using the microplate reader at 450 nm and 630 nm; analyzing data and drawing pictures by using software GraphPad Prism 5 Demo, and results are shown in FIG. 9 and table 3.

[4] = target: T1, PCSK9; assay: cell-based or functional assay

T1 sequence (Q8NBP7 31-692 limits assumed): as above

Row | Kd [1] [nM] | koff [1] [s⁻¹] | kon [1] [M⁻¹ s⁻¹] | EC50 [2] [µg/mL] | IC50 [3] [µg/mL] | EC50 value of bioactivity testing (BODIPY-LDL uptake in HepG2 cells, RFU) [4] [nM] | Binder
1 | 0.175 | 9.19e-05 | 518000 | 0.171 | 0.847 | – | DFSK9-1 complete antibody (antibody, V domains shown) VH: QVQLVQSGAEVKRPGASVKVSCKASGGTFTNNAISWVRQAPGQGLEWMGRIIPMFGMANYAQKLQGRGTMTTDPSTSTAYMELRSLRSDDTAVYYCAREGIPMIWGQGTTVTVSS VL: DIQMTQSPSSLSASVGDRVTITCRASQSIDNRLTWYQQKPGKAPKLLIYDASSRQSGVPSRFSGSGSGTDFTLTISSLQPEDFATYYCQQPENDPTTFGQGTKVEIK
2 | 0.052 | 2.99e-05 | 575000 | 0.0835 | 0.383 | 29.6 | DFSK9-13 complete antibody (antibody, V domains shown) VH: QVQLVQSGAEVKKPGASVKVSCKASGYSLTSYGISWVRQAPGQGLEWMGWVSFYQGNTNYAQKLQGRGTMTTDPSTSTAYMELRSLRSDDTAVYYCARGYGMTVWGQGTTVTVSS VL: DIQMTQSPSSLSASVGDRVTITCRASQDVDSWLTWYQQKPGKAPKLLIYGASNLASGVPSRFSGSGSGTDFTLTISSLQPEDFATYYCQQDSKIPLTFGQGTKVEIK
3 | 0.119 | 4.98e-05 | 418000 | 0.0646 | 0.266 | – | DFSK9-12 complete antibody (antibody, V domains shown) VH: QVQLVQSGAEVKKPGASVKVSCKASGYTVTSYGISWVRQAPGQGLEWMGWLSFYNGNTNYAQKLQGRGTMTTDPSTSTAYMELRSLRSDDTAVYYCARGYSLDVWGQGTTVTVSS VL: DIQMTQSPSSLSASVGDRVTITCRASQSVRNWLDWYQQKPGKAPKLLIYGASTLESGVPSRFSGSGSGTDFTLTISSLQPEDFATYYCQQDNDIPLTFGQGTKVEIK
4 | 0.00389 | 1.99e-06 | 512000 | 0.0339 | 0.107 | 23.9 | DFSK9-18 complete antibody (antibody, V domains shown) VH: QVQLVQSGAEVKKPGASVKVSCKASGYTVTSYGISWVRQAPGQGLEWMGWVSFYNGNSNYAQKLQGRGTMTTDPSTSTAYMELRSLRSDDTAVYYCARGYSLDVWGQGTTVTVSS VL: DIQMTQSPSSLSASVGDRVTITCRASQNINSWLNWYQQKPGKAPKLLIYGASSRQSGVPSRFSGSGSGTDFTLTISSLQPEDFATYYCQQWFDVPTTFGQGTKVEIK
5 | 0.0157 | 1.45e-05 | 925000 | 0.0337 | 0.216 | 17.9 | DFSK9-20 complete antibody (antibody, V domains shown) VH: QVQLVQSGAEVKKPGASVKVSCKASGYSLTSYGISWVRQAPGQGLEWMGWVSFYNGNSNYAQKLQGRGTMTTDPSTSTAYMELRSLRSDDTAVYYCARGFGMDRWGQGTTVTVSS VL: DIQMTQSPSSLSASVGDRVTITCRASQNINNWLNWYQQKPGKAPKLLIYGASTRPTGVPSRFSGSGSGTDFTLTISSLQPEDFATYYCQQWDDTPNTFGQGTKVEIK
6 | 0.186 | 7.34e-05 | 395000 | 0.0832 | 0.533 | – | DFSK9-19 complete antibody (antibody, V domains shown) VH: QVQLVQSGAEVKKPGASVKVSCKASGYSLTSYGISWVRQAPGQGLEWMGWVTFYNGNTNYAQKLQGRGTMTTDPSTSTAYMELRSLRSDDTAVYYCARGFGLSVWGQGTTVTVSS VL: DIQMTQSPSSLSASVGDRVTITCRASQNVNNWLNWYQQKPGKAPKLLIYAASTRETGVPSRFSGSGSGTDFTLTISSLQPEDFATYYCQQDNDMPLTFGQGTKVEIK
7 | 0.0293 | 7.9e-05 | 2.7e+06 | 0.0422 | 0.146 | 16.6 | DFSK9-14 complete antibody (antibody, V domains shown) VH: QVQLVQSGAEVKKPGASVKVSCKASGYSLTSYGISWVRQAPGQGLEWMGWVSFYNGQTNYAQKLQGRGTMTTDPSTSTAYMELRSLRSDDTAVYYCARGYGMSIWGQGTTVTVSS VL: DIQMTQSPSSLSASVGDRVTITCRASQNINSWLNWYQQKPGKAPKLLIYGASSRQSGVPSRFSGSGSGTDFTLTISSLQPEDFATYYCQQWFDVPTTFGQGTKVEIK
8 | 0.00156 | 1.84e-06 | 1.18e+06 | 0.0314 | 0.089 | 18.5 | DFSK9-17 complete antibody (antibody, V domains shown) VH: QVQLVQSGAEVKKPGASVKVSCKASGYTVTSYGISWVRQAPGQGLEWMGWVSFYNGNSNYAQKLQGRGTMTTDPSTSTAYMELRSLRSDDTAVYYCARGYSLDVWGQGTTVTVSS VL: DIQMTQSPSSLSASVGDRVTITCRASQNINNWLNWYQQKPGKAPKLLIYGASTRPTGVPSRFSGSGSGTDFTLTISSLQPEDFATYYCQQWDDTPNTFGQGTKVEIK
9 | 0.0461 | 5.61e-05 | 1.22e+06 | 0.0562 | 0.282 | 23.8 | DFSK9-16 complete antibody (antibody, V domains shown) VH: QVQLVQSGAEVKKPGASVKVSCKASGYTVTSYGISWVRQAPGQGLEWMGWVSFYQGNTNYAQKLQGRGTMTTDPSTSTAYMELRSLRSDDTAVYYCARGFGMDRWGQGTTVTVSS VL: DIQMTQSPSSLSASVGDRVTITCRASQNINSWLNWYQQKPGKAPKLLIYGASSRQSGVPSRFSGSGSGTDFTLTISSLQPEDFATYYCQQWFDVPTTFGQGTKVEIK
10 | 0.00875 | 4.75e-06 | 542000 | 0.0397 | 0.114 | 15.3 | DFSK9-15 complete antibody (antibody, V domains shown) VH: QVQLVQSGAEVKKPGASVKVSCKASGYTVTSYGISWVRQAPGQGLEWMGWVSFYNGQTNYAQKLQGRGTMTTDPSTSTAYMELRSLRSDDTAVYYCARGYSLDVWGQGTTVTVSS VL: DIQMTQSPSSLSASVGDRVTITCRASQNINNWLNWYQQKPGKAPKLLIYGASTRPTGVPSRFSGSGSGTDFTLTISSLQPEDFATYYCQQWDDTPNTFGQGTKVEIK
11 | 0.00716 | 4.24e-06 | 592000 | 0.0282 | 0.161 | 20.3 | DFSK9-21 complete antibody (antibody, V domains shown, also called DF5K9-21) VH: QVQLVQSGAEVKKPGASVKVSCKASGYSLTSYGISWVRQAPGQGLEWMGWVSFYNGQTNYAQKLQGRGTMTTDPSTSTAYMELRSLRSDDTAVYYCARGFGMDRWGQGTTVTVSS VL: DIQMTQSPSSLSASVGDRVTITCRASQNINNWLNWYQQKPGKAPKLLIYGASTRPTGVPSRFSGSGSGTDFTLTISSLQPEDFATYYCQQWDDTPNTFGQGTKVEIK
